Laboratory results as given in patent US10562947B2, “Compositions and methods for preventing or treating diseases, conditions or processes characterized by aberrant fibroblast proliferation and extracellular matrix deposition” (MOERAE MATRIX, INC., priority 2011, dated 2020).
Where a SMILES comes first, the peptide text is derived from it.

What was measured:
Experiment in all cases: Kinase Profiling Assay
Assay type in all cases: biochemical
MAPKAP-K2(h) = MAPKAP-K2(h) (Homo sapiens, UniProt P49137); conditions: for MAPKAP-K2(h) % activity: 100 μM peptide
Chain of MAPKAP-K2(h) (P49137 whole entry): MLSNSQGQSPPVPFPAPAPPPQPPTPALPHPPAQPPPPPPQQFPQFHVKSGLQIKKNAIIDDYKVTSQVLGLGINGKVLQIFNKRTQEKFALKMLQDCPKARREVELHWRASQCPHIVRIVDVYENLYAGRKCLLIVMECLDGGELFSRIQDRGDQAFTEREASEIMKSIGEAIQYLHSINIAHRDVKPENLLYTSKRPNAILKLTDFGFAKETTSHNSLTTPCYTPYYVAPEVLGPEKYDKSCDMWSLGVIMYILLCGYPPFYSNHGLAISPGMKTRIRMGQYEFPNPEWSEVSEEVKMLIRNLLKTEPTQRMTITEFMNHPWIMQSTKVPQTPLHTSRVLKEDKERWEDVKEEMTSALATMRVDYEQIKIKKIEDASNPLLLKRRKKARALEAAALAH
Summary of the method: (§1)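 Peptides designed to inhibit MK2 were checked against a broad human kinase panel (266 enzymes), with duplicate measurement of every activity.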

Axl(h) = Axl(h) (Homo sapiens, UniProt P30530); conditions: 100 μM peptide
Summary of the method: as §1

CaMKIδ(h) = CaMKIδ(h) (Homo sapiens, UniProt Q8IU85); conditions: 100 μM peptide
Chain of CaMKIδ(h) (Q8IU85 whole entry): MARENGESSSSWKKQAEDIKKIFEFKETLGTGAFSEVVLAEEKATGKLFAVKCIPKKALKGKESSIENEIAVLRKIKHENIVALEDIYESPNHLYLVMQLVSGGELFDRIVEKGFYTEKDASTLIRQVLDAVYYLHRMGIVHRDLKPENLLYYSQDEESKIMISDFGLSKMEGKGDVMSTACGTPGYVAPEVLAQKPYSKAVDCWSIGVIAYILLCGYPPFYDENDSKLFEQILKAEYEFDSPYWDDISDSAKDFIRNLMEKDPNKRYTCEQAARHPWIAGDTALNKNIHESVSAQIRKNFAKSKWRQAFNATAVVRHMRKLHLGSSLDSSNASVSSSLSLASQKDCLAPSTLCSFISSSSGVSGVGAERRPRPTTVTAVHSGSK
Summary of the method: as §1

PKCγ(h) = PKCγ(h) (Homo sapiens, UniProt P05129); conditions: 100 μM peptide
Summary of the method: as §1

Ret(h) = molecular target: T1, Ret(h) (Homo sapiens, UniProt P07949); conditions: 100 μM peptide
T1 construct: purchased Millipore (IC50 Profiler Express service)
Summary of the method: as §1

ALK4(h) = molecular target: T2, ALK4(h) (Homo sapiens, UniProt P36896); conditions: 100 μM peptide
T2 sequence (P36896 24-505): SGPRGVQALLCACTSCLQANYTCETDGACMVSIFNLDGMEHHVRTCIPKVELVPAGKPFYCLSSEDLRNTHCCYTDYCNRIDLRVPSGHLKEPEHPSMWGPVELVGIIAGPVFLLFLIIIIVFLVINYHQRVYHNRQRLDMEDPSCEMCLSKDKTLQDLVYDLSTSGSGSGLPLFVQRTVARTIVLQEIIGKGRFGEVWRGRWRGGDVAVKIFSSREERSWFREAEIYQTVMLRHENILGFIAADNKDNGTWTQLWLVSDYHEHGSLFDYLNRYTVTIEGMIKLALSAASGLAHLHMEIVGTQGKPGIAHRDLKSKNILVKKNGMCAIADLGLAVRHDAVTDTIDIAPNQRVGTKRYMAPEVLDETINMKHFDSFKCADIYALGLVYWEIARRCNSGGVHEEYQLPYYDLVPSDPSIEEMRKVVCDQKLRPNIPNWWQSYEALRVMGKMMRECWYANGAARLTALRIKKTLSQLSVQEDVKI
Summary of the method: as §1

TSSK1(h) = molecular target: T3, TSSK1(h) (Homo sapiens, UniProt Q9BXA7); conditions: 100 μM peptide
T3 sequence (Q9BXA7 1-367): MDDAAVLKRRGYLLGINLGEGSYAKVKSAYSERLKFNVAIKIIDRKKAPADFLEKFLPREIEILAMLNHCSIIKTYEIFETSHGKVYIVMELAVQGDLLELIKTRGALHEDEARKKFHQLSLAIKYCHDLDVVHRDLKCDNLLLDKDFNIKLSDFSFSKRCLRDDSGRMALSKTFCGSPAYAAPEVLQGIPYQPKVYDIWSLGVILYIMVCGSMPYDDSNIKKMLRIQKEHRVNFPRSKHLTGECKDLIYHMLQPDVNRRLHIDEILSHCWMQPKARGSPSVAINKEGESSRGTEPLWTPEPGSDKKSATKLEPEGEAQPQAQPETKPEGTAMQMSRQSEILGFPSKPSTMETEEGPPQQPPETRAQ
Summary of the method: as §1

Mer(h) = molecular target: T4, Mer(h) (Homo sapiens, UniProt Q12866); conditions: 100 μM peptide
T4 sequence (Q12866 21-999): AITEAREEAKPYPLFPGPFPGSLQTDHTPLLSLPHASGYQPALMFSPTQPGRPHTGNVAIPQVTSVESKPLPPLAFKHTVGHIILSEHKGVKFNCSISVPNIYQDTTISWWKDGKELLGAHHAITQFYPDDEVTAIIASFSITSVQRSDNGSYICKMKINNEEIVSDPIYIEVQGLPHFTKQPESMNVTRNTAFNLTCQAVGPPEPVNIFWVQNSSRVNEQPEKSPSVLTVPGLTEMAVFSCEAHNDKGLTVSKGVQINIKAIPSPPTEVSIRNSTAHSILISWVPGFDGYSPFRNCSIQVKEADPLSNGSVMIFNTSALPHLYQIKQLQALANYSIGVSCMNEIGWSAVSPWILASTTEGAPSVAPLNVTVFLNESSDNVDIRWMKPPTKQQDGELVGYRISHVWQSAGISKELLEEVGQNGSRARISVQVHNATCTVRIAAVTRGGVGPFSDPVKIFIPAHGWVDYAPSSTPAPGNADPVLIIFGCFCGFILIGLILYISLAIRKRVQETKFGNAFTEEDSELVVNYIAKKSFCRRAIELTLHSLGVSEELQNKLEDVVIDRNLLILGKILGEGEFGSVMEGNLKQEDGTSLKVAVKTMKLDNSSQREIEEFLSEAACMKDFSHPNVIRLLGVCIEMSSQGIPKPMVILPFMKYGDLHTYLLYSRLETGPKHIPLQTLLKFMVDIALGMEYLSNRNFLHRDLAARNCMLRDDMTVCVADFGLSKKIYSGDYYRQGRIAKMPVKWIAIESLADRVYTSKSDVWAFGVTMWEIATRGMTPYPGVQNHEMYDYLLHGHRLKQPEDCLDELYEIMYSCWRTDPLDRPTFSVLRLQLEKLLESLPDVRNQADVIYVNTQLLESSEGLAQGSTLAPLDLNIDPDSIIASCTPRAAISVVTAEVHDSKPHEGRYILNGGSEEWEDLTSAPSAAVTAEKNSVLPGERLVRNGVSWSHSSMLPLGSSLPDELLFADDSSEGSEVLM
Summary of the method: as §1

p70S6K(h) = p70S6K(h) (Homo sapiens, UniProt P23443); conditions: 100 μM peptide
Chain of p70S6K(h) (P23443 whole entry): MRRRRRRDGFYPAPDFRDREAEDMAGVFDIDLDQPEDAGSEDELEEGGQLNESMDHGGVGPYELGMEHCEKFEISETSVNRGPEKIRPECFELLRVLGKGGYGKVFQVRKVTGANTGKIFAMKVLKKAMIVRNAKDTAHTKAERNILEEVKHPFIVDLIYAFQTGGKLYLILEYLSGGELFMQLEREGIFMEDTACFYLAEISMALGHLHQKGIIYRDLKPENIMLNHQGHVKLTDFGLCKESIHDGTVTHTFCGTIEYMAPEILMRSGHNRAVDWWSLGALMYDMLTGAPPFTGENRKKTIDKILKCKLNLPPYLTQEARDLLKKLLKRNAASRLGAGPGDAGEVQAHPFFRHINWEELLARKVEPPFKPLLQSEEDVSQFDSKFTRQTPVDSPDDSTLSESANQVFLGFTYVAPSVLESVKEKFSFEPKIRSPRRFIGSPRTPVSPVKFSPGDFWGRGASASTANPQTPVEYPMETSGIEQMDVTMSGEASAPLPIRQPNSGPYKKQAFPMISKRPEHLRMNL
Summary of the method: as §1

PKBγ(h) = PKBγ(h) (Homo sapiens, UniProt Q9Y243); conditions: 100 μM peptide
Chain of PKBγ(h) (Q9Y243 whole entry): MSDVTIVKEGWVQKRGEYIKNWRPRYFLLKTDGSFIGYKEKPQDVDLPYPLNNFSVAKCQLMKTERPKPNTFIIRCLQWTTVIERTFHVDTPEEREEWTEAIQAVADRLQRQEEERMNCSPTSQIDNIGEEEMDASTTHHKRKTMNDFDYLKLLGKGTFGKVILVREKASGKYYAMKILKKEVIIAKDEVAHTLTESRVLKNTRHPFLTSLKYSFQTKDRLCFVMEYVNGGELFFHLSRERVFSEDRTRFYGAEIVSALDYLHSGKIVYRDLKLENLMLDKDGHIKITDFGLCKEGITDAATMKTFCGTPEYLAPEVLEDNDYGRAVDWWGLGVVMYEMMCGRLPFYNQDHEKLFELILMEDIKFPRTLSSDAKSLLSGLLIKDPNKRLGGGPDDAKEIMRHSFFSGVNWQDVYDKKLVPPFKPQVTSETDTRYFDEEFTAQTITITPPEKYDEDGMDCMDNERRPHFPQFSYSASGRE
Summary of the method: as §1

FGFR1(h) = FGFR1(h) (Homo sapiens, UniProt P11362); conditions: 100 μM peptide
Chain of FGFR1(h) (P11362 22-822): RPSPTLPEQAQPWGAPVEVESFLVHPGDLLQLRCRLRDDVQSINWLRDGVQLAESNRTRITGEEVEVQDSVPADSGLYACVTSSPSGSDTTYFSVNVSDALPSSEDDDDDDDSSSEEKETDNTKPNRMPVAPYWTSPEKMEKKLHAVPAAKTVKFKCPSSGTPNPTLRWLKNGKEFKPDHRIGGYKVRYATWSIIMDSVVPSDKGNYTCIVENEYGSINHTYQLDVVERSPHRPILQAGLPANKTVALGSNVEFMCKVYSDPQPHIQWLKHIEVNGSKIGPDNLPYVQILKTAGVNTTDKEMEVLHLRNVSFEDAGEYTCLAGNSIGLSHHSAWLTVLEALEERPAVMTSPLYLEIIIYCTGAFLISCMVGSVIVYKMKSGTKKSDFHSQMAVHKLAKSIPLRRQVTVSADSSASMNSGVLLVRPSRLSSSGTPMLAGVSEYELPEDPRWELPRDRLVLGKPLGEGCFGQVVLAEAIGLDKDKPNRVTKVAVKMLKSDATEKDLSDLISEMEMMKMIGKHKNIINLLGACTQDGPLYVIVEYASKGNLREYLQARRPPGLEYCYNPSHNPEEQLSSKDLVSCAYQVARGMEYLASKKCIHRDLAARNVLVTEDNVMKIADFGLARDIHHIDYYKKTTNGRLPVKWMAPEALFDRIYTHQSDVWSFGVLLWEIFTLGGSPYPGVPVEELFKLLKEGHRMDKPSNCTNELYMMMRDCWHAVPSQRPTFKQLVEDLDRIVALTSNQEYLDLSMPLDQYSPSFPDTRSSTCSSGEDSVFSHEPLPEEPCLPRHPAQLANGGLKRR
Summary of the method: as §1

Lyn(h) = Lyn(h) (Homo sapiens, UniProt P07948); conditions: 100 μM peptide
Chain of Lyn(h) (P07948 whole entry): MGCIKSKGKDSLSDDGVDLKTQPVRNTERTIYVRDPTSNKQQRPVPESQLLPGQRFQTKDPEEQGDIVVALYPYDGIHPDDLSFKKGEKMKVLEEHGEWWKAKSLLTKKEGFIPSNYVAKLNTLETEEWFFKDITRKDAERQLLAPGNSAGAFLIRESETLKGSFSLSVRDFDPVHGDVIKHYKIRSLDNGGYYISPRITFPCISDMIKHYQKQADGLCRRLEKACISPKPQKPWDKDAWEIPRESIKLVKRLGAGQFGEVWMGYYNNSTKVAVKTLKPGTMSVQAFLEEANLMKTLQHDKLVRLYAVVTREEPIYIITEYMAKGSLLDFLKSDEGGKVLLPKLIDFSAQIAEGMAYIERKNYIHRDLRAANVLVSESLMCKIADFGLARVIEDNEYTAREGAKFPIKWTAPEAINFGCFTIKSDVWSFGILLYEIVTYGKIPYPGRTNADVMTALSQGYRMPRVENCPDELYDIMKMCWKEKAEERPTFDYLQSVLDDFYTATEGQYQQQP
Summary of the method: as §1

CDK5/p25(h) = CDK5/p25(h) (Homo sapiens, UniProt Q00535); conditions: 100 μM peptide
Chain of CDK5/p25(h) (Q00535 whole entry): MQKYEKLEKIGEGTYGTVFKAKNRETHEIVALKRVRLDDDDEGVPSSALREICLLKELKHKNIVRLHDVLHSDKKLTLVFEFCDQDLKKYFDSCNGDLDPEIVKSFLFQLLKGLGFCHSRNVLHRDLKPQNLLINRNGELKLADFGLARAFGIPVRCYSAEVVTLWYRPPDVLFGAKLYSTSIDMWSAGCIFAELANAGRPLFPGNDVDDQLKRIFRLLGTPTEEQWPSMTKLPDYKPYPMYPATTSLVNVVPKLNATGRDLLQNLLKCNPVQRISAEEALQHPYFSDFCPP
Chain of CDK5/p25(h) (Q15078 99-307 partner limits assumed): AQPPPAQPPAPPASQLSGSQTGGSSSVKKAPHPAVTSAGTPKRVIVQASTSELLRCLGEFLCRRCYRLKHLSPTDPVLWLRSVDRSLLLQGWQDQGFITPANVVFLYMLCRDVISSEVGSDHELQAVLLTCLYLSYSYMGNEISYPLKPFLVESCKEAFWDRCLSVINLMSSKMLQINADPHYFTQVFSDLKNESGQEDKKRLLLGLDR
Summary of the method: as §1

Molecule	inhibition at 100 µM (MAPKAP-K2(h); read-out: inhibition of kinase activity of MK2)	Axl(h) % activity (Axl(h))	CaMKIδ(h) % activity (CaMKIδ(h))	PKCγ(h) % activity (PKCγ(h))	Ret(h) % activity (Ret(h))	ALK4(h) % activity (ALK4(h))	TSSK1(h) % activity (TSSK1(h))	Mer(h) % activity (Mer(h))	p70S6K(h) % activity (p70S6K(h))	PKBγ(h) % activity (PKBγ(h))	MAPKAP-K2(h) % activity (MAPKAP-K2(h))	FGFR1(h) % activity (FGFR1(h))	Lyn(h) % activity (Lyn(h))	CDK5/p25(h) % activity (CDK5/p25(h))
CC(C)C[C@H](NC(=O)[C@H](C)NC(=O)[C@H](CCCCN)NC(=O)[C@H](C)NC(=O)[C@H](CCCNC(=N)N)NC(=O)[C@H](C)NC(=O)[C@H](CCC(N)=O)NC(=O)[C@H](CCCNC(=N)N)NC(=O)[C@H](C)NC(=O)[C@H](C)NC(=O)[C@H](C)NC(=O)[C@H](CCCNC(=N)N)NC(=O)[C@H](C)NC(=O)[C@@H](N)Cc1ccc(O)cc1)C(=O)N[C@@H](C)C(=O)N[C@@H](CCCNC(=N)N)C(=O)N[C@@H](CCC(N)=O)C(=O)N[C@@H](CC(C)C)C(=O)NCC(=O)N[C@H](C(=O)N[C@@H](C)C(=O)N[C@@H](C)C(=O)O)C(C)C [MMI-0100] (H-YARAAARQARAKALARQLGVAA-OH; N-terminus and C-terminus assumed)	> 65%													
FAKLAARLYRKALARQLGVAA [MMI-0300]		52%	10%	89%	140%	140%	79%	52%	35%	20%	5%	55%	69%	89%
HRRIKAWLKKIKALARQLGVAA (Mammalian) [MMI-0500]		12%	0%	6%	174%	81%	46%	17%	3%	20%	9%	18%	31%	66%
KAFAKLAARLYRKALARQLGVAA [MMI-0400]		41%	17%	79%	145%	130%	79%	50%	33%	41%	5%	59%	3%	92%
YARAAARQARAKALNRQLGVA (Mammalian) [MMI-0200]		99%	47%	101%	96%	152%	98%	90%	84%		35%	97%	98%	97%
